Test results taken from US20090099029.

T1: Bovine, dephosphorylated, Myelin Basic Protein (MBP), P02687
T1 chain: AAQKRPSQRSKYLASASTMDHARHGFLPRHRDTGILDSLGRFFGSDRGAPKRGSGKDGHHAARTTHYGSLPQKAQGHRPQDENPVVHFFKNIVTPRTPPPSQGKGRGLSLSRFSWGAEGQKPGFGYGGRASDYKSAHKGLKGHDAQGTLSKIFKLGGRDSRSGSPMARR

B1: SLK (protein)
chain: MSFFNFRKIFKLGSEKKKKQYEHVKRDLNPEDFWEIIGELGDGAFGKVYKAQNKETSVLAAAKVIDTKSEEELEDYMVEIDILASCDHPNIVKLLDAFYYENNLWILIEFCAGGAVDAVMLELERPLTESQIQVVCKQTLDALNYLHDNKIIHRDLKAGNILFTLDGDIKLADFGVSAKNTRTIQRRDSFIGTPYWMAPEVVMCETSKDRPYDYKADVWSLGITLIEMAEIEPPHHELNPMRVLLKIAKSEPPTLAQPSRWSSNFKDFLKKCLEKNVDARWTTSQLLQHPFVTVDSNKPIRELIAEAKAEVTEEVEDGKEEDEEEETENSLPIPASKRASSDLSIASSEEDKLSQNACILESVSEKTERSNSEDKLNSKILNEKPTTDEPEKAVEDINEHITDAQLEAMTELHDRTAVIKENEREKRPKLENLPDTEDQETVDINSVSEGKENNIMITLETNIEHNLKSEEEKDQEKQQMFENKLIKSEEIKDTILQTVDLVSQETGEKEANIQAVDSEVGLTKEDTQEKLGEDDKTQKDVISNTSDVIGTCEAADVAQKVDEDSAEDTQSNDGKEVVEVGQKLINKPMVGPEAGGTKEVPIKEIVEMNEIEEGKNKEQAINSSENIMDINEEPGTTEGEEITESSSTEEMEVRSVVADTDQKALGSEVQDASKVTTQIDKEKKEIPVSIKKEPEVTVVSQPTEPQPVLIPSININSDSGENKEEIGSLSKTETILPPESENPKENDNDSGTGSTADTSSIDLNLSISSFLSKTKDSGSISLQETRRQKKTLKKTRKFIVDGVEVSVTTSKIVTDSDSKTEELRFLRRQELRELRFLQKEEQRAQQQLNSKLQQQREQIFRRFEQEMMSKKRQYDQEIENLEKQQKQTIERLEQEHTNRLRDEAKRIKGEQEKELSKFQNMLKNRKKEVINEVEKAPKELRKELMKRRKEELAQSQHAQEQEFVQKQQQELDGSLKKIIQQQKAELANIERECLNNKQQLMRAREAAIWELEERHLQEKHQLLKQQLKDQYFMQRHQLLKRHEKETEQMQRYNQRLIEELKNRQTQERARLPKIQRSEAKTRMAMFKKSLRINSTATPDQDRDKIKQFAAQEEKRQKNERMAQHQKHENQMRDLQLQCEANVRELHQLQNEKCHLLVEHETQKLKELDEEHSQELKEWREKLRPRKKTLEEEFARKLQEQEVFFKMTGESECLNPSTQSRISKFYPIPSLHSTGS
B2: RPS6KB2(p70S6K2) (protein)
chain: MAAVFDLDLETEEGSEGEGEPELSPADACPLAELRAAGLEPVGHYEEVELTETSVNVGPERIGPHCFELLRVLGKGGYGKVFQVRKVQGTNLGKIYAMKVLRKAKIVRNAKDTAHTRAERNILESVKHPFIVELAYAFQTGGKLYLILECLSGGELFTHLEREGIFLEDTACFYLAEITLALGHLHSQGIIYRDLKPENIMLSSQGHIKLTDFGLCKESIHEGAVTHTFCGTIEYMAPEILVRSGHNRAVDWWSLGALMYDMLTGSPPFTAENRKKTMDKIIRGKLALPPYLTPDARDLVKKFLKRNPSQRIGGGPGDAADVQRHPFFRHMNWDDLLAWRVDPPFRPCLQSEEDVSQFDTRFTRQTPVDSPDDTALSESANQAFLGFTYVAPSVLDSIKEGFSFQPKLRSPRRLNSSPRAPVSPLKFSPFEGFRPSPSLPEPTELPLPPLLPPPPPSTTAPLPIRPPSGTKKSKRGRGRPGR
B3: SRPK2 (protein)
chain: MSSRKVLAIQARKRRPKREKHPKKPEPQQKAPLVPPPPPPPPPPPPPLPDPTPPEPEEEILGSDDEEQEDPADYCKGGYHPVKIGDLFNGRYHVIRKLGWGHFSTVWLCWDMQGKRFVAMKVVKSAQHYTETALDEIKLLKCVRESDPSDPNKDMVVQLIDDFKISGMNGIHVCMVFEVLGHHLLKWIIKSNYQGLPVRCVKSIIRQVLQGLDYLHSKCKIIHTDIKPENILMCVDDAYVRRMAAEATEWQKAGAPPPSGSAVSTAPQQKPIGKISKNKKKKLKKKQKRQAELLEKRLQEIEELEREAERKIIEENITSAAPSNDQDGEYCPEVKLKTTGLEEAAEAETAKDNGEAEDQEEKEDAEKENIEKDEDDVDQELANIDPTWIESPKTNGHIENGPFSLEQQLDDEDDDEEDCPNPEEYNLDEPNAESDYTYSSSYEQFNGELPNGRHKIPESQFPEFSTSLFSGSLEPVACGSVLSEGSPLTEQEESSPSHDRSRTVSASSTGDLPKAKTRAADLLVNPLDPRNADKIRVKIADLGNACWVHKHFTEDIQTRQYRSIEVLIGAGYSTPADIWSTACMAFELATGDYLFEPHSGEDYSRDEDHIAHIIELLGSIPRHFALSGKYSREFFNRRGELRHITKLKPWSLFDVLVEKYGWPHEDAAQFTDFLIPMLEMVPEKRASAGECLRHPWLNS
B4: SGK2 (protein)
chain: LPDHCYRMNSSPAGTPSPQPSRANGNINLGPSANPNAQPTDFDFLKVIGKGNYGKVLLAKRKSDGAFYAVKVLQKKSILKKKEQSHIMAERSVLLKNVRHPFLVGLRYSFQTPEKLYFVLDYVNGGELFFHLQRERRFLEPRARFYAAEVASAIGYLHSLNIIYRDLKPENILLDCQGHVVLTDFGLCKEGVEPEDTTSTFCGTPEYLAPEVLRKEPYDRAVDWWCLGAVLYEMLHGLPPFYSQDVSQMYENILHQPLQIPGGRTVAACDLLQSLLHKDQRQRLGSKADFLEIKNHVFFSPINWDDLYHKRLTPPFNPNVTGPADLKHFDPEFTQEAVSKSIGCTPDTVASSSGASSAFLGFDYAPEDDDILDC
B5: EPHB4 (protein)
chain: LCLRKQSNGREAEYSDKHGQYLIGHGTKVYIDPFTYEDPNEAVREFAKEIDVSYVKIEEVIGAGEFGEVCRGRLKAPGKKESCVAIKTLKGGYTERQRREFLSEASIMGQFEHPNIIRLEGVVTNSMPVMILTEFMENGALDSFLRLNDGQFTVIQLVGMLRGIASGMRYLAEMSYVHRDLAARNILVNSNLVCKVSDFGLSRFLEENSSDPTYTSSLGGKIPIRWTAPEAIAFRKFTSASDAWSYGIVMWEVMSFGERPYWDMSNQDVINAIEQDYRLPPPPDCPTSLHQLMLDCWQKDRNARPRFPQVVSALDKMIRNPASLKIVARENGGASHPLLDQRQPHYSAFGSVGEWLRAIKMGRYEESFAAAGFGSFELVSQISAEDLLRIGVTLAGHQKKILASVQHMKSQAKPGTPGGTGGPAPQY
B6: RPS6KA2(RSK3) (protein)
chain: MDLSMKKFAVRRFFSVYLRRKSRSKSSSLSRLEEEGVVKEIDISHHVKEGFEKADPSQFELLKVLGQGSYGKVFLVRKVKGSDAGQLYAMKVLKKATLKVRDRVRSKMERDILAEVNHPFIVKLHYAFQTEGKLYLILDFLRGGDLFTRLSKEVMFTEEDVKFYLAELALALDHLHSLGIIYRDLKPENILLDEEGHIKITDFGLSKEAIDHDKRAYSFCGTIEYMAPEVVNRRGHTQSADWWSFGVLMFEMLTGSLPFQGKDRKETMALILKAKLGMPQFLSGEAQSLLRALFKRNPCNRLGAGIDGVEEIKRHPFFVTIDWNTLYRKEIKPPFKPAVGRPEDTFHFDPEFTARTPTDSPGVPPSANAHHLFRGFSFVASSLIQEPSQQDLHKVPVHPIVQQLHGNNIHFTDGYEIKEDIGVGSYSVCKRCVHKATDTEYAVKIIDKSKRDPSEEIEILLRYGQHPNIITLKDVYDDGKFVYLVMELMRGGELLDRILRQRYFSEREASDVLCTITKTMDYLHSQGVVHRDLKPSNILYRDESGSPESIRVCDFGFAKQLRAGNGLLMTPCYTANFVAPEVLKRQGYDAACDIWSLGILLYTMLAGFTPFANGPDDTPEEILARIGSGKYALSGGNWDSISDAAKDVVSKMLHVDPHQRLTAMQVLKHPWVVNREYLSPNQLSRQDVHLVKGAMAATYFALNRTPQAPRLEPVLSSNLAQRRGMKRLTSTRL
B7: RPS6KA1(RSK1) (protein)
chain: MPLAQLKEPWPLMELVPLDPENGQTSGEEAGLQPSKDEGVLKEISITHHVKAGSEKADPSHFELLKVLGQGSFGKVFLVRKVTRPDSGHLYAMKVLKKATLKVRDRVRTKMERDILADVNHPFVVKLHYAFQTEGKLYLILDFLRGGDLFTRLSKEVMFTEEDVKFYLAELALGLDHLHSLGIIYRDLKPENILLDEEGHIKLTDFGLSKEAIDHEKKAYSFCGTVEYMAPEVVNRQGHSHSADWWSYGVLMFEMLTGSLPFQGKDRKETMTLILKAKLGMPQFLSTEAQSLLRALFKRNPANRLGSGPDGAEEIKRHVFYSTIDWNKLYRREIKPPFKPAVAQPDDTFYFDTEFTSRTPKDSPGIPPSAGAHQLFRGFSFVATGLMEDDGKPRAPQAPLHSVVQQLHGKNLVFSDGYVVKETIGVGSYSECKRCVHKATNMEYAVKVIDKSKRDPSEEIEILLRYGQHPNIITLKDVYDDGKHVYLVTELMRGGELLDKILRQKFFSEREASFVLHTIGKTVEYLHSQGVVHRDLKPSNILYVDESGNPECLRICDFGFAKQLRAENGLLMTPCYTANFVAPEVLKRQGYDEGCDIWSLGILLYTMLAGYTPFANGPSDTPEEILTRIGSGKFTLSGGNWNTVSETAKDLVSKMLHVDPHQRLTAKQVLQHPWVTQKDKLPQSQLSHQDLQLVKGAMAATYSALNSSKPTPQLKPIESSILAQRRVRKLPSTTL
B8: RPS6KB1(p70S6K) (protein)
chain: MRRRRRRDGFYPAPDFRDREAEDMAGVFDIDLDQPEDAGSEDELEEGGQLNESMDHGGVGPYELGMEHCEKFEISETSVNRGPEKIRPECFELLRVLGKGGYGKVFQVRKVTGANTGKIFAMKVLKKAMIVRNAKDTAHTKAERNILEEVKHPFIVDLIYAFQTGGKLYLILEYLSGGELFMQLEREGIFMEDTACFYLAEISMALGHLHQKGIIYRDLKPENIMLNHQGHVKLTDFGLCKESIHDGTVTHTFCGTIEYMAPEILMRSGHNRAVDWWSLGALMYDMLTGAPPFTGENRKKTIDKILKCKLNLPPYLTQEARDLLKKLLKRNAASRLGAGPGDAGEVQAHPFFRHINWEELLARKVEPPFKPLLQSEEDVSQFDSKFTRQTPVDSPDDSTLSESANQVFLGFEYVAPSVLES
B9: RPS6KA4(MSK2) (protein)
chain: MGDEDDDESCAVELRITEANLTGHEEKVSVENFELLKVLGTGAYGKVFLVRKAGGHDAGKLYAMKVLRKAALVQRAKTQEHTRTERSVLELVRQAPFLVTLHYAFQTDAKLHLILDYVSGGEMFTHLYQRQYFKEAEVRVYGGEIVLALEHLHKLGIIYRDLKLENVLLDSEGHIVLTDFGLSKEFLTEEKERTFSFCGTIEYMAPEIIRSKTGHGKAVDWWSLGILLFELLTGASPFTLEGERNTQAEVSRRILKCSPPFPPRIGPVAQDLLQRLLCKDPKKRLGAGPQGAQEVRNHPFFQGLDWVALAARKIPAPFRPQIRSELDVGNFAEEFTRLEPVYSPPGSPPPGDPRIFQGYSFVAPSILFDHNNAVMTDGLEAPGAGDRPGRAAVARSAMMQDSPFFQQYELDLREPALGQGSFSVCRRCRQRQSGQEFAVKILSRRLEANTQREVAALRLCQSHPNVVNLHEVHHDQLHTYLVLELLRGGELLEHIRKKRHFSESEASQILRSLVSAVSFMHEEAGVVHRDLKPENILYADDTPGAPVKIIDFGFARLRPQSPGVPMQTPCFTLQYAAPELLAQQGYDESCDLWSLGVILYMMLSGQVPFQGASGQGGQSQAAEIMCKIREGRFSLDGEAWQGVSEEAKELVRGLLTVDPAKRLKLEGLRGSSWLQDGSARSSPPLRTPDVLESSGPAVRSGLNATFMAFNRGKREGFFLKSVENAPLAKRRKQKLRSATASRRGSPAPANPGRAPVASKGAPRRANGPLPPS

Biological target: T1, Bovine, dephosphorylated, Myelin Basic …

| Protein | MBP Kinase Activity |
| --- | --- |
| B1 | Weak |
| B2 | Negative |
| B3 | Strong |
| B4 | Weak |
| B5 | Strong |
| B6 | Negative |
| B7 | Strong |
| B8 | Negative |
| B9 | Weak |
